Test results from patent US9481870B2, “Nucleic acid encoding a polypeptide having aminotransferase activity, vectors and host cells comprising the nucleic acid” (KANEKA CORPORATION, priority 2010, dated 2016).

Experiment: Resistance to water-soluble organic solvent (residual activity)
Format: physicochemical
Conditions: 2 hours, 30° C.
Experimental: Resistance to a water-soluble organic solvent can be determined by the following method. Specifically, first, 800 uL of each water-soluble organic solvent is added to 200 uL of a 0.1 M aqueous potassium phosphate solution (pH7.5) supplemented with 0.5 mM PLP containing a purified polypeptide, so that the solvent is brought into contact with the solution at 30° C. for 2 hours. Subsequently, the resultant is diluted with a 0.1 M aqueous potassium phosphate solution supplemented with 0.5 mM PLP. Activity in the dilute solution is compared with the same in a purified polypeptide solution before addition of the solvent using the above activity assay A.
• (5) Resistance to water-soluble organic solvent: 800 μL of 1-propanol, 2-propanol, or acetone was added to 200 μL of 0.1 M potassium phosphate buffer (pH7.5) containing 0.5 mM pyridoxal phosphate to which purified TPM had been added, followed by 2 hours of treatment at 30° C. After treatment, 0.1 M potassium phosphate buffer (pH7.5) containing 0.5 mM pyridoxal phosphate was diluted 20-fold, and then the activity of the diluted solution was determined under conditions similar to those above.
The resistance of commercially available Vibrio fluvialis-derived ω-Transaminase VF (Julich-Chemicals) to a water-soluble organic solvent was examined by a method similar to that for resistance to a water-soluble organic solvent in Example 9 (5).

B1: TPM: purified aminotransferase polypeptide from Pseudomonas sp. MV37, about 50,000 molecular weight, amino acid sequence SEQ ID NO: 1 (protein, listed as Pseudomonas sp.)
chain: MNHLEKMLELDRNHLIHPHLPKSEFSRTIFARGKGCKLWDTEGREYLDATGGLWLAQIGHGREEIAEVAARQMKQLEYFTCFWDFSNERAIELAEKLARLAPGDLEMSFFTSGGSEGDDAAIKTARYYHSQRGEPKRTWILSRNNAYHGLAYGGGTATGFPELRDGMGPGLPHVAYLTQPNAYRHYYFDGQNPTDFCVSELEKMIASIGAENIAAMIAEPIMGVGGMVPPPVDYWPRMSQVLKKNGILLIFDEVVSAFGRSGHWFAAEKYGVIPDIMVTAKGISSGYIPLGAVIMSRDVADTVREGHGYPLGYTYSGHPVACAVALENLRILEDEDLINRSNHMGTYIAEQLTALRDNPCVGEVRQAGMGIGIELVTDKESRQPLPDAALVIPDIIREETGVIVRISNATNLCMSPPLTMSREEADRAVEAVCSVLSRVKPDGKV
Residual activity rate (%) (1-Propanol 80% v/v): 97% | Residual activity rate (%) (2-Propanol 80% v/v): 100% | stability against 1-propanol, 2-propanol, and acetone (80% v/v solvent): extremely stable | Residual activity rate (%) (Acetone 80% v/v): 99%
